T1: TACI-1 (Homo sapiens, UniProt O14836)
T1 sequence (O14836 1-293): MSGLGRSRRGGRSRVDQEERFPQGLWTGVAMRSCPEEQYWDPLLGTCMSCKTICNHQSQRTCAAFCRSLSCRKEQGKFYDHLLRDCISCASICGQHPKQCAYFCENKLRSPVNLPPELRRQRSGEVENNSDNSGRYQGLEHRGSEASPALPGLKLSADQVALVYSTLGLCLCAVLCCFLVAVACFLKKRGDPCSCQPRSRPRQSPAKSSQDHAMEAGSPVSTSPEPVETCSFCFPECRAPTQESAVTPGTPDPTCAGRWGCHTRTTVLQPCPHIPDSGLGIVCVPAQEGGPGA

B1: CAML(1-146): N-terminal 146 amino acids of CAML, expressed from plasmid; dominant negative inhibitor of TACI-1 signaling (protein, UniProt P49069 1-146, looked up, fragment)
chain: MESMAVATDGGERPGVPAGSGLSASQRRAELRRRKLLMNSEQRINRIMGFHRPGSGAEEESQTKSKQQDSDKLNSLSVPSVSKRVVLGDSVSTGTTDQQGGVAEVKGTQLGDKLDSFIKPPECSSDVNLELRQRNRGDLTADSVQR

Experiments:
TACI-1 [1] = biological target: T1, TACI-1; experiment: NF-AT-driven secreted alkaline phosphatase reporter in TAg Jurkat T cells transfected with TACI-1; format: cell-based; set-up: expressed in transfected cells; host or cells: TAg Jurkat T cells, plasmid pBJ5-TACI-1; details: antibody-cross linked TACI-1 in TAg Jurkat T cells; CsA 100 ng/ml, FK506 500 pg/ml; EGTA increasing concentrations; CAML(1-146) co-transfected
Protocol: FIG. 4. TACI-1 is a signaling protein that functions in the activation of NF-AT-specific transcription. FIG. 4A depicts the activation of an NF-AT-driven secreted alkaline phosphatase reporter. TAg Jurkat T cells, co-transfected with the SXNFAT reporter [Bram et al., Mol. Cell. Biol., 13:4760-4769 (1993)] and the expression plasmid pBJ5 [Takebe, Y, et al., Mol. Cell. Biol., 8:466-472 (1988)] containing either TACI-1-encoding cDNA (solid triangles) or nothing (circles), were treated with 50 ng/ml PMA and the indicated amounts of ionomycin in the presence (closed symbols) and absence (open symbols) of magnetic beads coated with immunoaffinity-purified anti-TACI-1 polyclonal antibodies. […] NF-AT activation was determined in TAg Jurkat T cells co-transfected with SXNFAT and pBJ5 (−TACI-1, left) or pBJ5-TACI-1 (+TACI-1, right), and treated with the indicated combinations of PMA (50 ng/ml), ionomycin (2 μM), CsA (100 ng/ml) and FK506 (500 pg/ml) in the presence of anti-TACI-1 antibody-coated beads (‘NS’, not stimulated). […] NF-AT activation was measured in the presence of EGTA in Jurkat T cells over expressing TACI-1. […] AP-1 activation was measured in TAg Jurkat T cells, co-transfected with a mouse metallothionein AP-1-SEAP reporter [Bram et al., 1991, supra] and pBJ5 containing no insert (−TACI-1, left) or TACI-1 cDNA (+TACI-1, right). […]

[2] = system: PMA plus ionomycin-induced NF-AT activity; experiment: PMA plus ionomycin-induced NF-AT activity in Jurkat T cells (specificity control); format: cell-based, human; details: co-transfection in Jurkat T cells
Protocol: To examine whether TACI-1 signaling depends on the association of TACI-1 with CAML. the interacting domain of CAML (residues 1-146) is tested to determine if it can inhibit TACI-1-induced NF-AT activation in a dominant negative fashion. […] CAML(1-146) lacks the hydrophobic transmembrane domains that are required for Ca^2+ influx activity [Holloway & Bram, Biol. Chem., 271:8549-8552 (1996)].

TACI-1 [3] = biological target: T1, TACI-1; experiment: Co-immunoprecipitation with FLAG-tagged TACI-1 from 293T cell lysates; format: binding; details: anti-FLAG agarose beads
Protocol: FIGS. 5A-5D. TACI-1 interaction with CAML is critical for Ca^2+ signaling. […] Full-length cDNAs and indicated deletion mutants of TACI-1 and CAML were cloned into the yeast expression plasmids pACT and/or pAS1, and the indicated combinations were tested for interaction with the yeast 2-hybrid system (‘+’, positive interaction; ‘−’, no interaction; ‘ND’, not done). FIG. 5D depicts the co-immunoprecipitation of CAML with TACI-1. 293T cells were transfected with the indicated combinations of the expression plasmid pBJ5 containing cDNAs for CAML. TACI-1 with an N-terminal FLAG tag, the N-terminal 146 amino acids of CAML (CLX91), or no insert. After incubation for 48 hours, the cells were lysed (1% dodecyl maltoside, 20 […] HEPES pH 7.4. 150 mM NaCl, 10% glycerol, 2 mM MgSO4, 1 mM CaCl2, 1 mM PMSF) and the lysate was clarified by centrifugation. FLAG-tagged TACI-1 and associated proteins were immunoprecipitated with anti-FLAG monoclonal antibody-conjugated agarose beads and subjected to Western transfer using standard protocols. […] NF-AT activation was determined in TAg Jurkat cells transfected with pBJ5 alone, pBJ5-TACI-1 plus the control plasmid, or pBJ5-TACI-1 with an equivalent amount of CLX91, following treatment with TACI-1-specific antibodies (top). TACI-1 expression in these transfections was determined by Western blot using anti-TACI-1 polyclonal antibodies (bottom). […]

| Molecule | effect on TACI-1-mediated NF-AT activation (TACI-1 [1]) | effect on PMA plus ionomycin-induced NF-AT activity [2] | co-immunoprecipitation with TACI-1 (TACI-1 [3]) |
| --- | --- | --- | --- |
| O=C(O)CN(CCOCCOCCN(CC(=O)O)CC(=O)O)CC(=O)O [EGTA, reference compound] | inhibition | – | – |
| B1 | completely eliminates | no inhibitory effect | co-immunoprecipitated |

Source: patent US6500428B1, “Antibodies to a lymphocyte surface receptor that binds CAML and methods of use thereof” (St. Jude Children's Research Hospital, priority 1997, dated 2002)
